These are literature values, as cited in PMC8020814.

The term Kd denotes the free concentration of one partner at which half of the binding sites on the other are occupied at equilibrium, for simple one-to-one binding.

The target of this series is C3b C3b (Homo sapiens) (UniProt P01024).
Chain of UniProt P01024 (P01024 566-670): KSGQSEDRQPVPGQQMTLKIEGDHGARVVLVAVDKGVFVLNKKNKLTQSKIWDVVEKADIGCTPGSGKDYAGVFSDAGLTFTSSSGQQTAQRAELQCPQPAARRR

Consider Factor H FH(1-4) (from UniProt P08603), for which the Kd is 11 µM.
